Numbering of substitutions follows the chain as printed. Like-named read-outs stand apart in the source and are kept apart here. Blank lines part the entries; values can stand above or below the binder they belong to.
Experiments:
[1] = molecular target: cynomolgus monkey DLL4 extracellular domain (cynomolgus monkey); assay: competition ELISA, competitor huNotch-1
[2] = molecular target: cynomolgus monkey DLL4 extracellular domain (cynomolgus monkey); assay: capture ELISA
[3] = molecular target: cynomolgus monkey DLL4 extracellular domain (cynomolgus monkey); assay: Biacore SPR
[4] = molecular target: cyno DLL4-his (cynomolgus monkey); assay: ELISA on DLL4-his
[5] = molecular target: cynomolgus monkey DLL4 extracellular domain (cynomolgus monkey); assay: Biacore SPR; remark: listed apart in the source
[6] = molecular target: cyno DLL4-his (cynomolgus monkey); assay: ELISA on DLL4-his; remark: listed apart in the source

B1: A10 (antibody, IgG1, V domains shown)
VH: EVQLLESGGGLVKSGGSLRLSCAASGFTFRSHWMSWVRQAPGKGLEWVAIISYDGSNKYSADSVKGRFTISRDNSKNTLYLQLNSLRAEDTAVYYCAKAGGGNVGFDIWGQGTMVTVSS
VL: LPVLTQPPSVSVSPGQTASITCSADKLGTKYVSWYQQKPGQSPVLVIYQDAKRPSGIPERFSGSNSGNTATLTISGTQTMDEADYLCQSWDRSDVVFGGGTKVTVL
- IC50 [1]: 5.1 nM
- EC50 [2]: 0.44 nM
- Kd [3]: 7.8 nM
- koff [3]: 0.00015 s⁻¹
- kon [3]: 19000 M⁻¹ s⁻¹

B2: E9-FR1 (antibody, V domains shown)
VH: EVQLVQSGTEVKKPGESLKISCKVSGGSISSSSYYWGWIRQMPGKGLEWIGDIYYTGSTYYNPSLKSQVTISVDTSFNTFFLQWSSLKASDTAMYYCAREDVILRGGSDYWGQGTMVTVSS
VL: EYVLTQSPATLSVSPGERATLSCSGQRLGDKYASWYQQKPGQSPRLVIYEDSKRPSDIPARFSGSNSGDEATLTISSLQSEDFAVYYCQAWDRDTGVFGQGTRLEIKR
- EC50 [4]: 0.12 nM
- Kd [5]: 0.74 nM

B3: E9-FR2 (antibody, V domains shown)
VH: EVTLRESGPALVKPTQTLTLTCTVSGGSISSSSYYWGWIRQPPGKGLEWIGDIYYTGSTYYNPSLKSRVTISVDTSKNQFVLTMTNMDPVDTATYYCAREDVILRGGSDYWGQGTTVTVSS
VL: DYVLTQSPDSLAVSLGERATINCSGQRLGDKYASWYQQKPGQSPKLVIYEDSKRPSGIPDRFSGSNSGDDATLTISSLQAEDVAVYYCQAWDRDTGVFGGGTKVEIKR
- EC50 [4]: 0.12 nM
- Kd [5]: 0.3 nM

B7: E9-SE8 (antibody, V domains shown)
VH: EVQLQESGPGLVKPGETLSLTCTVSGGSISSSSYYWGWIRQAPGKGLEWIGDIYYTGSTYYNPSLKSRVTISVDTSKNQFYLKLSSVRAEDTAVYYCAREDVILRGGSDYWGQGTLVTVSS
VL: EYVLTQSPDFQSVTPKEKVTITCSGQRLGDKYASWYQQKPDQSPKLVIYEDSKRPSGVPSRFSGSNSGDDATLTINSLEAEDAATYYCQAWDRDTGVFGQGTKVEIKR
- Kd [3]: 3.41 nM
- EC50 [6]: 0.14 nM

B8: E9-SE1 (antibody, V domains shown)
VH: EVQLVESGGGLVQPGGSLRLSCAVSGGSISSSSYYWGWIRQAPGKGLEWIGDIYYTGSTYYNPSLKSRVTISVDTSKNSFYLQMNSLRAEDTAVYYCAREDVILRGGSDYWGQGTLVTVSS
VL: LYVLTQPPSVSVSPGQTASITCSGQRLGDKYASWYQQKPGQSPVLVIYEDSKRPSGIPERFSGSNSGDTATLTISGTQTMDEADYLCQAWDRDTGVFGGGTKVTVLG
- Kd [3]: 5.42 nM
- EC50 [6]: 0.14 nM

B15: E9.17 (antibody, V domains shown)
VH: B7 VH with G15S, A42P, Y81S, R88T, E90A, D101E, V102A, R105G
VL: SYELTQPPSVSVSPGQTASITCSGQRLGDKYASWYQQKPGQSPVLVIYEDSKRPSGIPERFSGSNSGDTATLTISGTQPMDEADYYCQAWDRDTGVFGYGTKVTVL
- Kd [3]: 0.16 nM
- koff [3]: 1.23e-05 s⁻¹
- kon [3]: 75100 M⁻¹ s⁻¹

B17: E9.4 (antibody, V domains shown)
VH: B7 VH with G15S, A42P, Y81S, R88T, E90A, E100Y, I103S, R105G, G107S, Y110H
VL: B15 VL
- Kd [3]: 0.25 nM
- koff [3]: 3.44e-05 s⁻¹
- kon [3]: 137000 M⁻¹ s⁻¹

B18: E9-SE4 (antibody, V domains shown)
VH: B7 VH with G15S, A42P, Y81S, R88T, E90A
VL: B8 VL
- Kd [3]: 3.92 nM
- EC50 [6]: 0.14 nM

B19: E9-SE3 (antibody, V domains shown)
VH: B7 VH
VL: B8 VL with L1S, V3E, T79P, L86Y, G99Y, K102R
- Kd [3]: 3.42 nM
- EC50 [6]: 0.14 nM

B22: E9.48 (antibody, V domains shown)
VH: B7 VH with G15S, S33G, A42P, Y54N, T56R, Y81S, R88T, E90A
VL: B15 VL
- Kd [3]: 4.71 nM
- koff [3]: 7.91e-05 s⁻¹
- kon [3]: 16800 M⁻¹ s⁻¹

B24: E9.22 (antibody, V domains shown)
VH: B7 VH with G15S, S31N, S33R, Y35H, A42P, S67G, Y81S, R88T, E90A
VL: B15 VL
- Kd [3]: 6.26 nM
- koff [3]: 0.000352 s⁻¹
- kon [3]: 56200 M⁻¹ s⁻¹

B26: E9.13 (antibody, V domains shown)
VH: B7 VH with G15S, A42P, Y81S, R88T, E90A
VL: B15 VL with Q25D, R26T, A32V, K52E, R92S, D93E, Y99S
- Kd [3]: 0.63 nM
- koff [3]: 4.95e-05 s⁻¹
- kon [3]: 79200 M⁻¹ s⁻¹

B27: E9.71 (antibody, V domains shown)
VH: EVQLQESGPGLVKPSETLSLTCTVSGGSISSSSYYWGWIRQPPGKGLEWIGDIYYTGSTYYNPSLKSRVTISVDTSKNQFSLKLSSVTAADTAVYYCARQALAMGGGSDKWGQGTLVTVSS
VL: B15 VL
- IC50 [1]: 2 nM
- EC50 [2]: 0.44 nM
- Kd [3]: 0.49 nM
- koff [3]: 3.79e-05 s⁻¹
- kon [3]: 77500 M⁻¹ s⁻¹

B28: E9 (antibody, IgG1, V domains shown)
VH: B7 VH with G15S, A42P, Y81S, R88T, E90A
VL: B15 VL with K102R
- IC50 [1]: 2.1 nM
- EC50 [2]: 0.4 nM
- Kd [3]: 4.2 nM
- koff [3]: 7.4e-05 s⁻¹
- kon [3]: 18000 M⁻¹ s⁻¹

Further lines, results first:

- Kd [3]: 7.53 nM
- EC50 [6]: 0.12 nM
B4: E9-SE7 (antibody, V domains shown)
VH: B8 VH
VL: B7 VL

- Kd [3]: 6.7 nM
- EC50 [6]: 0.13 nM
B5: E9-SE5 (antibody, V domains shown)
VH: B7 VH with G15S, A42P, Y81S, R88T, E90A
VL: B7 VL

- Kd [3]: 3.68 nM
- EC50 [6]: 0.14 nM
B6: E9-SE2 (antibody, V domains shown)
VH: B8 VH
VL: B8 VL with L1S, V3E, T79P, L86Y, G99Y, K102R

- EC50 [4]: 0.035 nM
- Kd [5]: 0.47 nM
- Kd [3]: 4.08 nM
- EC50 [6]: 0.24 nM
B9: E9.1 (antibody, human IgG1, V domains shown)
VH: B7 VH with G15S, A42P, Y81S, R88T, E90A
VL: B8 VL with L1S, V3E, T79P, L86Y, G99Y, K102R

- Kd [3]: 1 nM
- koff [3]: 2.63e-05 s⁻¹
- kon [3]: 26300 M⁻¹ s⁻¹
B10: E9.18 (antibody, V domains shown)
VH: B7 VH with G15S, S33G, A42P, Y54N, T56A, Y81S, R88T, E90A
VL: B15 VL

- Kd [3]: 12.9 nM
- koff [3]: 0.000414 s⁻¹
- kon [3]: 32100 M⁻¹ s⁻¹
B11: E9.65 (antibody, V domains shown)
VH: B7 VH with G15S, S30R, S31N, S33R, Y35H, A42P, S67G, Y81S, R88T, E90A
VL: B15 VL

- Kd [3]: 0.14 nM
- koff [3]: 9.1e-06 s⁻¹
- kon [3]: 65500 M⁻¹ s⁻¹
B12: E9.66 (antibody, V domains shown)
VH: B27 VH with Q100E, A101G, L102V, A103P, M104L, S108A
VL: B15 VL

- Kd [3]: 6.75 nM
- koff [3]: 0.000386 s⁻¹
- kon [3]: 57200 M⁻¹ s⁻¹
B13: E9.14 (antibody, V domains shown)
VH: B7 VH with G15S, S31N, S33R, Y35H, A42S, Y81S, R88T
VL: B15 VL

- Kd [3]: 6.55 nM
- EC50 [6]: 0.13 nM
B14: E9-SE6 (antibody, V domains shown)
VH: B7 VH
VL: B8 VL

- Kd [3]: 1.52 nM
- koff [3]: 3.79e-05 s⁻¹
- kon [3]: 24900 M⁻¹ s⁻¹
B16: E9.16 (antibody, V domains shown)
VH: B7 VH with G15S, A42P, Y81S, R88T, E90A
VL: B15 VL with Q25E, A32V, S51F

- Kd [3]: 0.17 nM
- koff [3]: 8.9e-06 s⁻¹
- kon [3]: 53100 M⁻¹ s⁻¹
B20: E9.11 (antibody, V domains shown)
VH: B27 VH with Q100E, L102V, A103P, M104L, K110Y
VL: B15 VL

- Kd [3]: 1.44 nM
- koff [3]: 3.47e-05 s⁻¹
- kon [3]: 24200 M⁻¹ s⁻¹
B21: E9.38 (antibody, V domains shown)
VH: B7 VH with G15S, A42P, Y81S, R88T, E90A
VL: B15 VL with A32V, T94V, Y99S

- IC50 [1]: 1.5 nM
- EC50 [2]: 0.46 nM
- Kd [3]: 0.25 nM
- koff [3]: 4.86e-05 s⁻¹
- kon [3]: 192000 M⁻¹ s⁻¹
B23: E9.19 (antibody, V domains shown)
VH: B27 VH with Q100F, A101D, L102V, A103S, M104L, K110T
VL: B15 VL

- IC50 [1]: 2.2 nM
- EC50 [2]: 0.45 nM
B25: E9.2B (antibody, V domains shown)
VH: B27 VH with S33N, Y54N, T56N, S58N, Q100E, L102V, M104L, S108A, K110D
VL: B15 VL with Q25E, R26G, A32V, K52T, R92S, D93E, Y99S
